Non-standard residues stand in square brackets, D forms with d. No end group written: not given here. Ahx = NCCCCCC(=O)O; βAla = NCCC(=O)O

Assay [1] addresses α-MSH receptor of wild type Xenopus laevis melanophores (Xenopus laevis). Kind of assay: cell-based or functional assay.
Assay [2] deals with bombesin receptor expressed in transfected Xenopus laevis melanophores (plasmid pJG3.6BR). Kind of assay: cell-based or functional assay.

As for MP[dF]R[dW]FKPVGGG[Ahx]KKKKKKKKKKKKKKKKKKKK[βAla] [α-MSH-ANT monomer (MPdFRdWFKPV-GGGεAhx-K(20)-βAla)], in assay [1], the IC50 of inhibition of α-MSH (5 nM) mediated pigment dispersion in wild type melanophores amounted to 120 nM.

In assay [1], SYSMEHFRWGKPVGGG[Ahx]KKKKKKKKKKKKKKKKKKKKC[βAla] (ends and bridges not checked; also: disulfide-linked homodimer via Cys) [α-MSH dimer (disulfide-linked homodimer of …-GGG-εAhx-K(20)-C-βAla)] gave an EC50 (at t=30 min.) of pigment dispersion in wild type melanophores of 72.5 nM and an EC50 of pigment dispersion, fold lower than α-MSH monomer of 5 fold.

B1: Bombesin dimer (disulfide-linked homodimer of C-K(20)-εAhx-GGG-…) (peptide)
peptide: CKKKKKKKKKKKKKKKKKKKK[Ahx]GGGQQRLGNQWAVGHLM-NH2
modifications: ends and bridges not checked; also: disulfide-linked homodimer via N-terminal Cys
In assay [2], B1 yielded an EC50 (t=30 min) of pigment dispersion in melanophores transfected with the bombesin receptor of 23.4 nM and an EC50 of pigment dispersion, fold lower than bombesin monomer of 5 fold.

The values above are taken from patent publication US6500934.
